This note sets out measurements from article PMC4837458.

The subject of series [1] is dPPR-TN (designed (synthetic; NTD/CTD from Zea mays PPR10)). Nature of the series: EMSA. To be noted: 5 mM Mg2+; apparent Kd; EMSA: 25 mM Tris-HCl pH 8.0, 5 mM MgCl2, 5 mM DTT, 0.1 mg/ml BSA, 50 ng/ml heparin, 10% glycerol, ~2 nM 32P-RNA, 20 min on ice.
The test system of series [2] is dPPR-U8A2 N318S;D348N;N353S;D383N (designed (synthetic; NTD/CTD from Zea mays PPR10)), PDB:5I9D_1. Put plainly: EMSA. To be noted: 5 mM Mg2+; apparent Kd; EMSA: 25 mM Tris-HCl pH 8.0, 5 mM MgCl2, 5 mM DTT, 0.1 mg/ml BSA, 50 ng/ml heparin, 10% glycerol, ~2 nM 32P-RNA, 20 min on ice.
For series [3], the system named is dPPR-NN (designed (synthetic; NTD/CTD from Zea mays PPR10)). Put plainly: EMSA. As to conditions: 5 mM Mg2+; apparent Kd; EMSA: 25 mM Tris-HCl pH 8.0, 5 mM MgCl2, 5 mM DTT, 0.1 mg/ml BSA, 50 ng/ml heparin, 10% glycerol, ~2 nM 32P-RNA, 20 min on ice.
The subject of series [4] is T1, dPPR-U8C2 D348S;D383S (designed (synthetic; NTD/CTD from Zea mays PPR10)), PDB:5I9G_1.
T1 sequence: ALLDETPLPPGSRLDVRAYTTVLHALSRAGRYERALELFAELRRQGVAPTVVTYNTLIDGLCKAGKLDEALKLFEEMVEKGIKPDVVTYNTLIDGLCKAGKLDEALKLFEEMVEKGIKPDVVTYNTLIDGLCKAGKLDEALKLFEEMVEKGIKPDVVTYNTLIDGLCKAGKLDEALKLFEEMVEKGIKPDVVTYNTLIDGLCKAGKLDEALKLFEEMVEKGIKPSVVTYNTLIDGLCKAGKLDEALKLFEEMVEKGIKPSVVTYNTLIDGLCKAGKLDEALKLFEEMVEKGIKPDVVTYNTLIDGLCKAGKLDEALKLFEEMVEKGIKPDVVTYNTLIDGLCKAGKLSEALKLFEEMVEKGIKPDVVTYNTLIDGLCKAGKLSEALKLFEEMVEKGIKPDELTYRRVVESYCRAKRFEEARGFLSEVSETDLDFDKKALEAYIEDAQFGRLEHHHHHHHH
Nature of the series: EMSA. As to conditions: 5 mM Mg2+; apparent Kd; EMSA: 25 mM Tris-HCl pH 8.0, 5 mM MgCl2, 5 mM DTT, 0.1 mg/ml BSA, 50 ng/ml heparin, 10% glycerol, ~2 nM 32P-RNA, 20 min on ice.

Series [5] deals with dPPR-4 (designed (synthetic; NTD/CTD from Zea mays PPR10)). Nature of the series: EMSA. To be noted: 5 mM Mg2+; apparent Kd; EMSA: 25 mM Tris-HCl pH 8.0, 5 mM MgCl2, 5 mM DTT, 0.1 mg/ml BSA, 50 ng/ml heparin, 10% glycerol, ~2 nM 32P-RNA, 20 min on ice.
The test system of series [6] is dPPR-SD (designed (synthetic; NTD/CTD from Zea mays PPR10)). Nature of the series: EMSA. As to conditions: 5 mM Mg2+; apparent Kd; EMSA: 25 mM Tris-HCl pH 8.0, 5 mM MgCl2, 5 mM DTT, 0.1 mg/ml BSA, 50 ng/ml heparin, 10% glycerol, ~2 nM 32P-RNA, 20 min on ice.
Series [7] concerns dPPR-U8G2 N318T;N353T (designed (synthetic; NTD/CTD from Zea mays PPR10)), PDB:5I9H_1. Nature of the series: EMSA. As to conditions: 5 mM Mg2+; apparent Kd; EMSA: 25 mM Tris-HCl pH 8.0, 5 mM MgCl2, 5 mM DTT, 0.1 mg/ml BSA, 50 ng/ml heparin, 10% glycerol, ~2 nM 32P-RNA, 20 min on ice.
The target of series [8] is T2, dPPR-U10 (designed (synthetic; NTD/CTD from Zea …, UniProt PDB:5I9F_1 1-460).
T2 chain: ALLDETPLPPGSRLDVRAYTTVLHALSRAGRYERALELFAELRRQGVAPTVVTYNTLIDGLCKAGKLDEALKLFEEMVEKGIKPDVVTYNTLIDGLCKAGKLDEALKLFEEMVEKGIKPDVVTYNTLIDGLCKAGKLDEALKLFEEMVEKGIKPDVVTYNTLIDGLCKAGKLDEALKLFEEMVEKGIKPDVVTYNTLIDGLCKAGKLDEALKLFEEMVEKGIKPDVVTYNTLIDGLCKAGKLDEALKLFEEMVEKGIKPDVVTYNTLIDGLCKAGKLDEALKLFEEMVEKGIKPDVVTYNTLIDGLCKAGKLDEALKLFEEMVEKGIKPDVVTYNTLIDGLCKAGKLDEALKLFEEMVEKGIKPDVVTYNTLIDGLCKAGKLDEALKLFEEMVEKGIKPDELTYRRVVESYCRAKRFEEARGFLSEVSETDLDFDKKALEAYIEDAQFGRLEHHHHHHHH
Nature of the series: X-ray crystallography; 2.20 A; EMSA: 25 mM Tris-HCl pH 8.0, 5 mM MgCl2, 5 mM DTT, 0.1 mg/ml BSA, 50 ng/ml heparin, 10% glycerol, ~2 nM 32P-RNA, 20 min on ice.

The target of series [9] is T3, dPPR-U8C2 (designed (synthetic; NTD/CTD from Zea …, UniProt PDB:5I9G_1 1-460, D348S;D383S).
T3 sequence: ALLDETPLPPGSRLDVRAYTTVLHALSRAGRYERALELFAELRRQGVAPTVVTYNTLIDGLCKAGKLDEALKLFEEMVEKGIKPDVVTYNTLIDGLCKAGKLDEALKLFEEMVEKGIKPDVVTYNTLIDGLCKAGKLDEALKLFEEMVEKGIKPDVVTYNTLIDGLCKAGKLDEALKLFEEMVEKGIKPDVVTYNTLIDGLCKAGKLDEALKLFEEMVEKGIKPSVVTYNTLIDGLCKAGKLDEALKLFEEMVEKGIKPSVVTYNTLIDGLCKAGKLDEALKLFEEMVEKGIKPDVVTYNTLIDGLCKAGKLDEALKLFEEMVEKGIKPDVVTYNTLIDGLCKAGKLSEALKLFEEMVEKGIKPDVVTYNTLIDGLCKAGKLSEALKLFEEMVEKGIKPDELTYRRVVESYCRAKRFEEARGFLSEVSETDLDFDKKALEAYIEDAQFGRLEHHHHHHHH
Nature of the series: EMSA; C5,C6 to U; EMSA: 25 mM Tris-HCl pH 8.0, 5 mM MgCl2, 5 mM DTT, 0.1 mg/ml BSA, 50 ng/ml heparin, 10% glycerol, ~2 nM 32P-RNA, 20 min on ice.

Series [10] deals with T2, dPPR-U10. Put plainly: EMSA; 5 mM Mg2+; apparent Kd; EMSA: 25 mM Tris-HCl pH 8.0, 5 mM MgCl2, 5 mM DTT, 0.1 mg/ml BSA, 50 ng/ml heparin, 10% glycerol, ~2 nM 32P-RNA, 20 min on ice.
In series [11] the target is T3, dPPR-U8C2. Put plainly: X-ray crystallography; 2.30 A; EMSA: 25 mM Tris-HCl pH 8.0, 5 mM MgCl2, 5 mM DTT, 0.1 mg/ml BSA, 50 ng/ml heparin, 10% glycerol, ~2 nM 32P-RNA, 20 min on ice.

UUUUAAUUUU [U8A2 target]: the figures for the Kd in [1] and in series [2] were 0.0589 µM and 0.0238 µM, respectively.

On to UUUUCCUUUU [U8C2 target], for which the Kd in series [3] amounted to 0.0146 µM; in series [4] it was 0.0185 µM. With UUCCAGAU [dPPR-4 target], in series [5], the Kd was 0.0246 µM. Take UUUUUUUUUU [U10 target]: the Kd in series [3] is 0.0159 µM.

As to UUUUGGUUUU [U8G2 target], the Kd in series [6] amounted to 0.0311 µM; in series [7], 0.0298 µM.

As to GGGGUUUUUUUUUUCCCC (ssRNA) [18-nt U10 crystal RNA], in [8], the binding result was “binds”. For UUUUUUUUUU (ssRNA) [U10 target], in [9], the binding result is “no binding”. Also, the Kd in series [10] stood at 0.0743 ± 0.0079 µM. On to GGGGUUUUCCUUUUCCCC (ssRNA) [18-nt U8C2 crystal RNA], for which, in series [11], the binding result is recorded as “binds”.
